Results from patent US20200147199A1 (published 2020).
Positions count from the first letter of the chain named.

B1: Z038 (BRA12_2) (antibody, V domains shown)
VH: EVQLLESGGGLVQPGGSLRLSCEASGFTFSNYAMNWVRQAPGKGLEWVSTLGATDNSGDSTYYVESAKGRFTISRDNSKNTLYLQMNSLRVEDTAVYFCAKDRTGNIGAGTGYFDKWGQGTLVTVSS
VL: DIQMTQSPSTLSASVGDRVTITCRASHRISGWLAWYQQKPGKAPKLLIYQASGLESGVPSRFSGSGYGTEFTLTISSLQADDFATYYCQQYNNYPWTFGQGTKVEIK
B2: Z037 (antibody, V domains shown)
VH: QVQLQESGPGLVKPSETLSLTCSVSGYFISSGHYWGWIRQSPGKGLEWIASIYQSGSKFQTGNTYYNPSLESRVTISMDTSKNQFSLKLSSVTAADTAVYFCARDARSRSWDRTGFFGPWGQGILVTVSS
VL: EIVLTQSPGTLSLSPGERATLSCRASQSLSSSFLAWYQQKPGQSPRLLIYGTSSRDTGIPDRFSGSGSGTDFTLTISRLEPEDSAVYYCQQYGSSWGTFGQGTKLEIK
B3: Z018 (antibody, V domains shown)
VH: QVQLVQSGPGVKKPGASVKVSCKASGYIFSDYYILWVRQAPGQGLEYMGWMNPISGFTHYAQNFQGRVTMTRDTSISTAYMELTRLASDDTAVYYCARGGRINSPLGFDPWGQGTLVTVSS
VL: EIVLTQSPATLSLSPGERATLSCRASQSISTFSLAWYQQKFGQAPRLLIYGASSRATGIPDRFSGSGSGTDFTLTISRLEPEDFAVYYCQQYVSSPLTFGGGTKVEIK
B4: Z024 (antibody, V domains shown)
VH: EVQLVQSGAEVRKPGESLRISCKTSGYTFTSHWVAWVRQMPGKGLEWMGIIYPGDSDTRYSPSFQGQISISADKSINTAYLQWSSLKASDTGIYYCARHDGRGYCSPTRCFFSGMDVWGQGTTVTVSS
VL: DIQLTQSPSSLSASVGDRVTITCRASQSISNYLNWYQQKPGKAPNLLIYAASSLQSGVPSRFSGSGSGTDFTLTISSLQPEDYAIYYCQQTDRTPLTFGQGTKVEIK
B5: Z031 (BRA112_46) (antibody, V domains shown)
VH: EVQLLESGGGLVQPGGSLRLSCVASGFTFGSYGMAWVRQAPGKGLEWISSISSIDPSTYYADSVKGRFTVSRDNSENTLYLHMSSLKVEDTAVYFCAKDRLNGGFGELFASWGQGTLVTVSS
VL: DIQMTQSPSTLSASVGDSVTITCRASQSISSWLAWYQQKPGKAPKFLIHKASSLESGIPSRFSGSGSGTEFTLTINNLQPDDFATYYCQHYHSYPWTFGQGTKVEIK
B6: Z004 (MEX18_89) (antibody, V domains shown)
VH: EVQLLESGGGLVQPGGSLRLTCATSGFTFRDYAMSWVRQAPGKGLEWVSSYSGIDDSTYYADSVKGRFTISRDNSKSTLSLHMNSLRAEDSALYFCAKDRGPRGVGELFDSWGQGTLVTVSS
VL: DIQMTQSPSTLSASVGDRVTITCRASQSISKWLAWYQQKPGKAPKLLIYTTSTLKSGVPSRFSGSGSGTEFTLTISSLQPDDFATYYCQHFYSVPWTFGQGTKVEIK
B7: Z001 (MEX18_21) (antibody, V domains shown)
VH: EVQLLESGGGLVQPGGSRRLSCATSGFSFDTYAMSWLRQAPGKGLEWVSSFSGLDDSTYYADSVKGRFTISRDNSKNTLYLQMNSLRAEDTAIYYCAKDRGPRGIGELFDFWGQGTLVTVSS
VL: B6 VL with K31R, T50K, G57E, Y92H
B8: Z028 (MEX84_p4-53) (antibody, V domains shown)
VH: EVQLLESGGGLVQPGGSLRLSCAASGFTFSAYAMSWVRQAPGKGLEWVSSINGHSDSTYFADSVKGRFTISRDNSKNTLYLQMNSLRAEDTALYYCAKDRLREGIGELFHSWGQGTLVTVSS
VL: B6 VL with V15I, S30T, K31P, L46F, T50Q, T53I, K55E, F91Y, Y92H, V94Y
B9: Z042 (antibody, V domains shown)
VH: QVQLQESGPGLVKPSETLSLSCTVSSGSISNYYWNWIRQPPGKGLEWIGYIYYSGSISYNPSLKSRVTISVDTSKNQLSLKLNSVTAADTAVYYCARGPDNRYWGQGTLVTVSS
VL: EIVMTQSPATLSVSPGERVTLSCRASQSVSYNLAWHQQKPGQAPRLLIYGASTRATGIPARFSGSGSGTEFTLTISNMQSEDFAVYYCQQYNNWPPVFTFGPGTKVDIK
B10: Z035 (BRA112_71) (antibody, V domains shown)
VH: EVQLLESGGGLIQPGGSLRLSCAASGFTFSSYAMSWVRQAPGKGLEWVSGISGSGGASDNGASRYYADSVKGRFSISRDNSKNTVYLQMNSLRAEDTAVYYCAKDRLSGGFGELFQKWGQGTLVTVSS
VL: DIQMTQSPSTLAASVGDRVTITCRASQNINSWLAWYQQKPGKAPKFLIYKASTLESGAPSRFSGSGSGTEFTLTISSLQPDDFATYYCQHYYSYPYTFGQGTKVEIK
B11: Z041 (antibody, V domains shown)
VH: QVQLVQSGAEVKKPGSSVRLSCKASGGSYSTYAISWVRQAPGQGLEWMGRIIPSLGKTHLAQKFQGRVTFTADESTTTVYMILSSLKSEDTALYYCATPDWQYSSAYSLDHWGQGTLVTVSS
VL: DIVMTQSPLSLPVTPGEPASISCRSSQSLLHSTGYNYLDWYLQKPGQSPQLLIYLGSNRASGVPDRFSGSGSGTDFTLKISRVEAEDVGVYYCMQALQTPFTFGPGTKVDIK
B12: Z014 (antibody, V domains shown)
VH: EVQLLESGGDLVQPGGSLRLSCAASGFTFSSYGMSWVRQAPGKGLEWVSSISGFDPSTYYADSVRGRFTIARDNSKNTLYLQMKSLRVEDTAIYYCAKDRLVRGFGEVLDSWGQGTLVTVSS
VL: DIQMTQSPSSLSASVGDRVTITCRASQGISNYLAWYQQKPREVPKLLIYAASTLHSGVPSRFSGSGSGTDFTLTISGLQPEDVATYYCQKYNSVPWTFGQGTKVEIK
B13: Z043 (antibody, V domains shown)
VH: QVQLVQSGAEVKKPGASVKVSCKTSGYTFTSYYMNWVRQAPGQGLEWMGIIKPSDGSTNYAQKFQGRVTMTRDTSTSTVYMELRSLRSEDTAVYYCGRDSKGWLQLRGDIDYWGQGTLVTVSS
VL: QSALTQPASVSGSPGQSITISCAGTSSDVGNYNLVSWYQQHPGKAPKLLIYEVSKRPSGVSNRFSGSKSGNTASLTISGLQAEDEADYYCCSYAGSSTYVFGTGTEVTVL
B14: Z039 (antibody, V domains shown)
VH: EVQLLESGGGLVQPGGSLRLSCAASGYIFDNYAMSWVRQAPGKGLEWVSYINGGGYGTDYADSVKGRFTISRDNSKRILYLQMNSLRVGDTAVYYCAKSPYVGGYGLPGDSWGQGTLVTVSS
VL: EIVLTQSPGTLSLSPGERATLSCRASQTIFFNYLAWYQKKPGQAPRLLVHGASTRATGIPDRFSGSGSGTDFTLTINSLDPEDFAVYYCQQYGDSPPTFGGGTKVEIK
B15: Z012 (antibody, V domains shown)
VH: QVQLVQSGAEVKKSGASVKVSCKASGYSFTTNYIHWVRQAPGQGPEWMGIINPRGGSTTYAQKFQGRVLMTSDTSTSTVYMELSSLRSEDRAVYYCARGKNHQTTVAVLSWYYGMDVWGQGTTVTVSS
VL: DIQMTQSPSSVSASVGDRVTITCRASQGISSWLAWYQQKPGKAPKLLISAASSLQSGVPSRFSGSGSGTDFTLTISNLQPEDFATYFCQQANSFPYTFGQGTKLEIK
B16: Z021 (MEX84_p4-23) (antibody, V domains shown)
VH: QVQLQESGPGLVKPSETLSLTCTVSGGSIDTYYWSWIRQTPGKGLEWIGCFYYSVDNHFNPSLESRVTISVDTSKNQFSLKMTSMTASDTAVYYCARNQPGGRAFDYWGPGTLVTVSS
VL: EIVLTQSPATLSLSPGQRATLSCRASQSVSNYFAWYQQKPGQAPRLLIYDTSKRATGTPARFSGSGSGTDFTLTISSLEPEDFAVYYCQERNNWPLTWTFGLGTKVEIK
B17: Z006 (MEX105_42) (antibody, V domains shown)
VH: EVQLLESGGGLVQPGGSLRLSCAASGFTFKNYAMAWVRQAPGKGLEWVSLLYNSEESTYYADSVKGRFTISRDNSKNTLFLQMNRLRVEDTAVYFCVRDRSNGWSSINLWGRGTLVTVSS
VL: DIQMTQSPSTLSASVGDRVTMTCRASQTISGWLAWYQQKPGKAPKLLIYQASRLESGIPSRFSGSGSGTEFTLTISSLQPDDVATYYCQQYSTFWTFGLGTKVEIK
B18: Z010 (MEX105_88) (antibody, V domains shown)
VH: EVQLLESGGGLVQPGGSLRLSCAASGFTFSNYAMAWVRQAPGKGLEWVSLIYSGDDSTYYADFVKGRFTISRHNSKNTLSLQMNSLRAEDTAIYYCVKDRGTGWSSIVHWGQGTLVTVSS
VL: B17 VL with M21I, G31N, R53S, I58V, V83F, F94Y, L99Q

Target: ZIKV E Domain III (ZEDIII), polyhistidine-AviTag, produced in HEK-293-6E cells
Experiment: ELISA

| Binder | EC50 |
| --- | --- |
| B1 | 0.0581 µg/mL |
| B2 | > 0.4 µg/mL |
| B3 | 0.0742 µg/mL |
| B4 | > 4 µg/mL |
| B5 | 0.0341 µg/mL |
| B6 | 0.0237 µg/mL |
| B7 | 0.0206 µg/mL |
| B8 | 0.0371 µg/mL |
| B9 | 0.0586 µg/mL |
| B10 | 0.0284 µg/mL |
| B11 | 0.218 µg/mL |
| B12 | 0.106 µg/mL |
| B13 | 0.188 µg/mL |
| B14 | 0.0885 µg/mL |
| B15 | 0.2 µg/mL |
| B16 | 0.0554 µg/mL |
| B17 | 0.0351 µg/mL |
| B18 | > 0.4 µg/mL |
